Reference: US10047131B2, “Peptides and combination of peptides for use in immunotherapy against ovarian cancer and other cancers” (immatics biotechnologies GmbH, priority 2015, dated 2018)

target: HLA-A*02:01 (Homo sapiens, UniProt P04439, D140Y/D185E/D98H/E176V/E277Q/G131W/G231S/I119V/I121R/I166T/I218V/L300P/L318F/N151K/N90K/P208A/P217A/Q86G/Q94H/R138H/R169H/T345S); assay: MHC binding assay (UV-ligand exchange, ELISA of exchange yield); conditions: binding to HLA-A*02:01, UV-ligand exchange
Excerpt: Candidate peptides for T cell based therapies according to the present invention were further tested for their MHC binding capacity (affinity). The individual peptide-MHC complexes were produced by UV-ligand exchange, where a UV-sensitive peptide is cleaved upon UV-irradiation, and exchanged with the peptide of interest as analyzed. Only peptide candidates that can effectively bind and stabilize the peptide-receptive MHC molecules prevent dissociation of the MHC complexes. To determine the yield of the exchange reaction, an ELISA was performed based on the detection of the light chain (p2m) of stabilized MHC complexes. The assay was performed as generally described in Rodenko et al. (Rodenko et al., 2006).
96 well MAXISorp plates (NUNC) were coated over night with 2 μg/ml streptavidin in PBS at room temperature, washed 4× and blocked for 1 h at 37° C. in 2% BSA containing blocking buffer. […] Peptide-MHC monomers of the UV-exchange reaction were diluted 100 fold in blocking buffer. Samples were incubated for 1h at 37° C., washed four times, incubated with 2 μg/ml HRP conjugated anti-β2m for 1h at 37° C., washed again and detected with TMB solution that is stopped with […]. Absorption was measured at 450 nm. Candidate peptides that show a high exchange yield (preferably higher than 50%, most preferred higher than 75%) are generally preferred for a generation and production of antibodies or fragments thereof, and/or T cell receptors or fragments thereof, as they show sufficient avidity to the MHC molecules and prevent dissociation of the MHC complexes.

Substance | Peptide exchange (MHC class I binding score, peptide exchange yield)
60 (SLTIDGIYYV; listed as Homo sapiens) [compound 60] | “++++” (≥75% = ++++)
61 (FLQGYQLHL; listed as Homo sapiens) [compound 61] | “++++” (≥75% = ++++)
62 (VLLDVSAGQLLM; listed as Homo sapiens) [compound 62] | “++++” (≥75% = ++++)
63 (YLLPSGGSVTL; listed as Homo sapiens) [compound 63] | “++” (≥20% = ++)
64 (YAAPGGLIGV; listed as Homo sapiens) [compound 64] | “++” (≥20% = ++)
66 (FLDENIGGVAV; listed as Homo sapiens) [compound 66] | “+++” (≥50 = +++)
67 (TLLAEALVTV; listed as Homo sapiens) [compound 67] | “+++” (≥50 = +++)
68 (SLMELPRGLFL; listed as Homo sapiens) [compound 68] | “++++” (≥75% = ++++)
69 (FQLDPSSGVLVTV; listed as Homo sapiens) [compound 69] | “+++” (≥50 = +++)
70 (GLLDYPVGV; listed as Homo sapiens) [compound 70] | “+++” (≥50 = +++)
71 (GILARIASV; listed as Homo sapiens) [compound 71] | “+++” (≥50 = +++)
72 (SLLELDGINL; listed as Homo sapiens) [compound 72] | “+++” (≥50 = +++)
73 (NIFDLQIYV; listed as Homo sapiens) [compound 73] | “+++” (≥50 = +++)
74 (ALLDPEVLSIFV; listed as Homo sapiens) [compound 74] | “+++” (≥50 = +++)
75 (GLLEVMVNL; listed as Homo sapiens) [compound 75] | “+++” (≥50 = +++)
76 (ILIDSIYKV; listed as Homo sapiens) [compound 76] | “+++” (≥50 = +++)
77 (ILVEADGAWVV; listed as Homo sapiens) [compound 77] | “++++” (≥75% = ++++)
78 (SLFSSLEPQIQPV; listed as Homo sapiens) [compound 78] | “+++” (≥50 = +++)
79 (SLFIGEKAVLL; listed as Homo sapiens) [compound 79] | “+++” (≥50 = +++)

Substance | Peptide exchange (MHC class I binding score, peptide exchange yield)
80 (FLYDNLVESL; listed as Homo sapiens) [compound 80] | “++” (≥20% = ++)
81 (FLFSQLQYL; listed as Homo sapiens) [compound 81] | “++” (≥20% = ++)
82 (FLSSVTYNL; listed as Homo sapiens) [compound 82] | “+++” (≥50 = +++)
83 (ILAPTVMMI; listed as Homo sapiens) [compound 83] | “+++” (≥50 = +++)
84 (VTFGEKLLGV; listed as Homo sapiens) [compound 84] | “++” (≥20% = ++)
85 (KMSELRVTL; listed as Homo sapiens) [compound 85] | “+++” (≥50 = +++)
86 (NLIGKIENV; listed as Homo sapiens) [compound 86] | “+++” (≥50 = +++)
87 (ALPEAPAPLLPHIT; listed as Homo sapiens) [compound 87] | “++” (≥20% = ++)
88 (FLLVGDLMAV; listed as Homo sapiens) [compound 88] | “+++” (≥50 = +++)
89 (YILPTETIYV; listed as Homo sapiens) [compound 89] | “++++” (≥75% = ++++)
90 (TLLQIIETV; listed as Homo sapiens) [compound 90] | “+++” (≥50 = +++)
91 (IMQDFPAEIFL; listed as Homo sapiens) [compound 91] | “++++” (≥75% = ++++)
92 (YLIPFTGIVGL; listed as Homo sapiens) [compound 92] | “++” (≥20% = ++)
93 (LLQAIKLYL; listed as Homo sapiens) [compound 93] | “++” (≥20% = ++)
94 (YLIDIKTIAI; listed as Homo sapiens) [compound 94] | “++” (≥20% = ++)
95 (SVIPQIQKV; listed as Homo sapiens) [compound 95] | “+++” (≥50 = +++)
96 (YIFTDNPAAV; listed as Homo sapiens) [compound 96] | “+++” (≥50 = +++)
97 (SLINGSFLV; listed as Homo sapiens) [compound 97] | “+++” (≥50 = +++)
98 (LIIDQADIYL; listed as Homo sapiens) [compound 98] | “+++” (≥50 = +++)

Substance | Peptide exchange (MHC class I binding score, peptide exchange yield)
99 (ALVSKGLATV; listed as Homo sapiens) [compound 99] | “++” (≥20% = ++)
100 (YLLSTNAQL; listed as Homo sapiens) [compound 100] | “++++” (≥75% = ++++)
101 (ILVGGGALATV; listed as Homo sapiens) [compound 101] | “+++” (≥50 = +++)
102 (YLFESEGLVL; listed as Homo sapiens) [compound 102] | “+++” (≥50 = +++)
103 (TLAEEVVAL; listed as Homo sapiens) [compound 103] | “+++” (≥50 = +++)
104 (STMEQNFLL; listed as Homo sapiens) [compound 104] | “++++” (≥75% = ++++)
106 (LLYDAVHIVSV; listed as Homo sapiens) [compound 106] | “+++” (≥50 = +++)
107 (FLQPVDDTQHL; listed as Homo sapiens) [compound 107] | “+++” (≥50 = +++)
108 (ALFPGVALLLA; listed as Homo sapiens) [compound 108] | “++++” (≥75% = ++++)
109 (IILSILEQA; listed as Homo sapiens) [compound 109] | “++++” (≥75% = ++++)
110 (FLSQVDFEL; listed as Homo sapiens) [compound 110] | “+++” (≥50 = +++)
111 (YVWGFYPAEV; listed as Homo sapiens) [compound 111] | “+++” (≥50 = +++)
113 (GLLPTPLFGV; listed as Homo sapiens) [compound 113] | “+++” (≥50 = +++)
114 (SLVGEPILQNV; listed as Homo sapiens) [compound 114] | “++” (≥20% = ++)
115 (AIAGAGILYGV; listed as Homo sapiens) [compound 115] | “++” (≥20% = ++)
116 (YHIDEEVGF; listed as Homo sapiens) [compound 116] | “+” (≥10% = +)
117 (ILPDGEDFLAV; listed as Homo sapiens) [compound 117] | “+++” (≥50 = +++)
118 (KLIDNNINV; listed as Homo sapiens) [compound 118] | “+++” (≥50 = +++)
119 (FLYIGDIVSL; listed as Homo sapiens) [compound 119] | “++++” (≥75% = ++++)
